In the assay the target is T1, mouse Ebi3 subunit of recombinant IL-35, V5-His-tagged (mouse, UniProt O35228 19-228).
T1 sequence: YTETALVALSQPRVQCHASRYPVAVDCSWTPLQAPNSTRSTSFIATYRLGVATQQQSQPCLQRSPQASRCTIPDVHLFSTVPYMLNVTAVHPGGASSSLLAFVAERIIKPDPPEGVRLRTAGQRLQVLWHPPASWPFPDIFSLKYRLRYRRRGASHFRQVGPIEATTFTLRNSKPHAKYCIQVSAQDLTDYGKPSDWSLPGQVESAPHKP
Briefly: co-IP.

The text below walks through data of paper PMC4048323 (Nature medicine, 2014).

B1: mouse IL-12p35 (p35) subunit of recombinant IL-35, Flag-tagged (natural protein)
chain: RVIPVSGPARCLSQSRNLLKTTDDMVKTAREKLKHYSCTAEDIDHEDITRDQTSTLKTCLPLELHKNESCLATRETSSTTRGSCLPPQKTSLMMTLCLGSIYEDLKMYQTEFQAINAALQNHNHQQIILDKGMLVAIDELMQSLNHNGETLRQKPPVGEADPYRVKMKLCILLHAFSTRVVTINRVMGYLSSA
Regarding B1, the binding result is listed as “binds”.
